From the supplement of paper PMC10567573

B1: CDC25A (parent)
chain: KPIVPTDGKRVIVVFHCEFSSERG
B2: PTPRD (parent)
chain: MVHVARLLLLLLTFFLRTDAETPP
B3: KLHDC10 (parent)
chain: CPIIRIPNRFLRGHRPPPARSGHR

Variants of: B1
Assay: protein stability index of a GFP-peptide fusion (GPS, HEK-293T) (PSI 1-6); higher = more stable
Conditions: c terminus: a fixed tail appended
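Note: lentivirally expressed fusions sorted by FACS into six bins by GFP to DsRed ratio, PSI derived from sequencing read proportions per bin multiplied by bin number.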

Protein stability index of substitutions, site by site:
I3: R 2.56; A 3.14; V 2.43; F 2.09; K 2.47; S 1.1; E 2.1; N 2.48; T 2.19; D 1.76; P 2.27; H 1.89; M 2.32; G 1.7
P2: F 2.37; H 2.44; L 1.83; S 1.31; C 3.03; D 1.61; V 1.82; N 3.3; Y 2.75; R 1.99; I 3.46; Q 2.24; A 3.03
K1: V 3.69; T 1.98; I 2.57; D 2.13; P 2.25; R 2.65; F 1.32; S 2.04; A 1.37; H 2.4; Q 2.15; M 1.86; N 1.62; W 2.24; C 3.33; Y 1.55; E 1.68

Variants of: B2
Assay: as above
Conditions: c terminus: a fixed tail appended

Protein stability index, by site and new letter:
V4: C 3.07; S 2.46; T 2.52; R 2.34; L 3.81; Y 1.52; N 2.68; M 1.46; I 1.41
V2: P 1.93; H 2.53; D 2.92; T 2.06; F 4.14; W 2.96; C 2.73; R 2.51; G 1.83; A 2.85; N 1.79; Q 1.88; S 2.4; M 2.69
L11: V 1.84; I 2.14; F 2.56; W 3.02; S 3.85; N 3.99; P 3.92; E 1.62; M 3.56; H 1.97; K 1.69
P24: T 3.52; D 2.73; F 1.99; C 4.5; Y 2.67; Q 3.53; A 3.4; V 2.77; I 2.26; M 3.61; N 1.73; S 4.91; L 2.27
P23: A 2.42; N 2.49; Q 3.52; Y 3.76; F 2.96; R 3.55; S 2.84; E 2.31; M 2.86; V 2.46; T 1.86
T18: C 1.86; H 2.3; G 2.47; V 2.63; M 2.62; R 3.3; N 2.38; S 2.48; E 2.04; K 3.74; F 3.28; D 2.18; Y 2.88
H3: P 1.49; D 2.1; M 2.86; C 4.98; L 2.27; S 4.08; K 1.78; T 3.21
T13: G 2.01; K 2.03; M 3.59; H 1.77; P 2.14; Q 1.32; W 3.29; I 4.2; R 2.04; N 2.05; S 2.31
R6: L 1.9; E 3.41; Q 3.99; F 1.74; H 3.34; T 2.3; C 2.16; D 3.08; V 2.29; K 1.67; M 1.76; I 1.13; S 1.88
D19: K 2.29; N 2.96; I 2.41; F 3.69; S 1.84; L 2.71; Q 2.75; A 2.91; C 4.03; V 3.32
L10: K 2.83; W 1.93; I 4.4; D 1.67; P 3.02; R 2.14; M 2.42; A 2.23; F 2.43; G 1.33; C 2.04; T 1.24; N 2.71; Y 1.66; E 2.79; Q 1.57
A5: C 2.97; I 1.95; Y 2.6; T 2.7; H 4.03; R 1.78; L 3.83; F 3.28; Q 2.34; W 2.51
T22: F 1.95; V 3.03; H 2.36; W 5.11; S 4.07; E 2.08; R 3.51; N 2.05; D 2.81
R17: E 1.62; L 2.77; Q 1.92; I 2.17; D 2.22; P 1.87; V 2.9; N 3.08; Y 2.3; T 2.79; F 2.87
F15: E 2.21; Y 3; D 2.02; N 3.47; I 2.25; L 2.13; W 2.81; H 4.29; P 2.01; V 2.2; M 2.34
L9: Y 2.74; Q 1.8; H 1.53; W 2.29; I 2.95; T 3.23; R 1.88; A 2.04; N 1.58; F 2.89; M 1.87; S 2.29; D 3.06; K 3.08
F14: H 1.25; R 1.98; C 1.47; E 1.57; Y 1.86; N 2.07; Q 2.15; A 1.93; G 1.48; L 1.98; D 1.79; K 1.61; I 2.56; S 1.99; M 3.79; P 2.45
L8: F 2.82; R 2.45; Y 3.46; Q 2.18; D 3.8; K 1.98; T 3.02; C 1.89; I 2.58
L16: T 2.68; A 1.49; M 4.18; F 1.37; G 2.65; E 3.34; Q 1.74; R 1.72; H 2.35; Y 1.52; S 2.22; D 3.53; P 2.65; K 1.72; N 2.12; W 1.81
M1: F 1.96; K 2.28; H 1.82; Q 2.33; Y 3.9; T 2.87; L 1.52; E 2.33; I 3.05
L12: W 2.53; D 1.57; H 1.58; G 2.46; S 2.3; Q 2.2; R 2.03; P 2.19; Y 3.69; E 2.51; K 2.63; F 3; C 3.16; N 2.12; I 2.03; V 1.57
E21: K 2.66; M 3.64; Y 2.55; L 2.79; Q 4.35; V 2.83; F 3.22; A 3.13; C 2.82
L7: N 3.02; R 2.75; P 1.74; C 2.95; Y 2.55; I 3.46; G 4.57; K 3.28; H 2.1; E 1.36; S 2.15; T 3.27
A20: G 1.84; Q 2.29; H 3.11; I 1.81; F 1.84; E 2.48; D 1.29; L 2.99

Variants of: B3
Assay: as above
Conditions: c terminus: a fixed tail appended

Protein stability index, by site and new letter:
R24: V 2.54; K 1.29; H 2.01; Y 1.7; L 2.61; N 1.84; W 2.99; I 2.99; M 1.93; P 2.33; S 2.03
